According to patent US20190248902A1 (published 2019):

Key:
Soluble ASGR-1 = molecular target: T1, Soluble ASGR-1 (human, UniProt P07306 62-291, biotinylated); assay: limited antigen binding assay; biotinylated soluble ASGR-1 coated at 2.5 ng/mL on LumAvidin beads, FACS
T1 construct: Soluble recombinant protein; also called recombinant, soluble ASGR-1 biotinylated protein
T1 sequence: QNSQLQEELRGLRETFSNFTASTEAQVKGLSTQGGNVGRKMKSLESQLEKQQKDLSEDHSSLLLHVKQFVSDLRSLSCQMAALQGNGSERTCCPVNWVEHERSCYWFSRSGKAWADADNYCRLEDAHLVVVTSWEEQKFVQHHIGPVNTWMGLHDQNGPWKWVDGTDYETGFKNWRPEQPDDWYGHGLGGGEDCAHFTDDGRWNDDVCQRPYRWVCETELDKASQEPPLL

Human ASGR-2 = molecular target: T2, Human ASGR-2 (human, UniProt P07307 1-311); assay: FACS on transfected HEK 293 cells; binding = signal at least 2x irrelevant IgG
T2 construct: Expressed on HEK 293 cells; cDNA GenBank NM_080913.3; also called huASGR-2; hASGR-2
T2 sequence: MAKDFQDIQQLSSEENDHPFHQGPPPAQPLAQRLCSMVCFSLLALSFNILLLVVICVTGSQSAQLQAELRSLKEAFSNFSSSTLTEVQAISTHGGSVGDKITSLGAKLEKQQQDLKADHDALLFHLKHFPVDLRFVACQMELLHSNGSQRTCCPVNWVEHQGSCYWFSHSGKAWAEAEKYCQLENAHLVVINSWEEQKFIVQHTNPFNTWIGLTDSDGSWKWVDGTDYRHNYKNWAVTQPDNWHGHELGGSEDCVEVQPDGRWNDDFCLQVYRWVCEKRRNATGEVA
Method: Human ASGR-1-specific, ligand competing antibody samples were tested for binding to ASGR-1 from other species (cynomologus monkey ASGR-1, mouse ASGR-1, rat ASGR-1, dog ASGR-1, and pig ASGR-1) as well as to human ASGR-2 in FACS binding assays at normalized antibody concentrations. For cell-based assays, HEK 293 cells expressing the appropriate antigen of interest were mixed with antibody sample or controls, incubated for 1 hour at 4° C., and then washed twice. Cells with bound antibody were then incubated with Alexa Fluor® 647 IgG Fc fragment-specific detection antibody and 7-AAD viability stain for 15 minutes at 4° C., washed once and resuspended in FACS buffer. Samples were analyzed using a BD Accuri™ Flow Cytometer and an Intellicyt HyperCyt Autosampler. As a negative control, supernatants and controls were also screened against HEK 293 cells transfected with empty parental vector. […] For membrane-prep binding assays, ASGR-1 species specific membrane preps were used to coat LumAvidin® microspheres (beads) and tested for binding to selected hybridoma supernatants or controls. Briefly, ASGR-1 species specific membrane preps were incubated with streptavidin-coated LumAvidin® beads for 45 minutes in the dark at room temperature and washed twice. Beads were resuspeneded in FACS buffer containing Stabilguard®. Antigen-bound beads were then incubated with normalized antibody sample for 1 hour in the dark at room temperature, washed twice, incubated with Alexa Fluor® 488 IgG Fc fragment-specific detection antibody for 15 minutes in the dark at room temperature, washed once and finally resuspended in FACS buffer. Samples were analyzed using an Intellicyt iQue™ Screener Platform. FACS buffer supplemented with 1 mM Calcium Chloride was used in all steps. As a negative control, supernatants and controls were also screened against a non-ASGR-1 antigen membrane prep coated on the LumAvidin® beads.

Mouse ASGR-1 = molecular target: T3, Mouse ASGR-1 (mouse, UniProt P34927 1-284); assay: FACS on transfected HEK 293 cells or membrane preps on beads; binding = signal at least 2x irrelevant IgG
T3 construct: Expressed on HEK 293 cells or as membrane prep on beads; cDNA GenBank BC022106.1; also called muASGR-1; mASGR-1
T3 sequence: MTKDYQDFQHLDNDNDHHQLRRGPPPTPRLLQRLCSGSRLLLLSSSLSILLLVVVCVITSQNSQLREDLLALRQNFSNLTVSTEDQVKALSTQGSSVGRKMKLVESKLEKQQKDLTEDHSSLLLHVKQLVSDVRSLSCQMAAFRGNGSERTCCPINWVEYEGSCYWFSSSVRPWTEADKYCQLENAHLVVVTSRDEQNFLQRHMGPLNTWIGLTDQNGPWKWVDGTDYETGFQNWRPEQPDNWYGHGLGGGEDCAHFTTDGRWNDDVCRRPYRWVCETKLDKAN
How it was run: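 Antibodies at normalized concentrations bound 1 h at 4° C to HEK 293 cells expressing each antigen, then Alexa Fluor 647 anti-Fc plus 7-AAD 15 min at 4° C, flow cytometry; empty-vector cells as negative. Alternatively, species ASGR-1 membrane preps on streptavidin beads, antibody 1 h RT, Alexa Fluor 488 anti-Fc; FACS buffer with 1 mM CaCl2 throughout.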

| Binder | FACS Geomean (Soluble ASGR-1) | binding result (Human ASGR-2) | binding result (Mouse ASGR-1) |
| --- | --- | --- | --- |
| 56E5 (antibody, V domains shown, Tested as hybridoma supernatant at normalized concentration) VH: QVQLVQSGAEVKKPGASVKVSCQASGYTFTGYHMHWVRQAPGQGLEWMGWINPNNNATNYAQKFQGRVTMTRDTSISTAYMELRRLRSDDTAVYHCARDGTSSFDYWGQGTLVTVSS VL: DIQMTQSPSSVSASVGDRVTITCRASQGIRKWLAWYQQKPGKAPKLLIYAASSLQSGVPSRFSGSGSGTDFTLTISSLQPEDFATYYCQQANSFPFTFGPGTKVDIK | 22600 FACS Geomean | no binding | no binding |
| 194A4 (antibody, V domains shown, Tested as hybridoma supernatant at normalized concentration) VH: QVQLVQSGTEVKKPGASLKVSCKASGYTFTVYYLNWVRQAPGQGLEWMGWINPNSGGTNYAQKFQGRVTMTRDTSISTAYMELSRLRSDDTAVYYCARGYDILTGWGQGTLVTVSS VL: EIVLTQSPGTLSLSPGERATLSCRASRGVSNIYLAWYQQKPGQAPRLLIYGASNRATGIPDRFSGSGSGTDFTLTISRLEPEDFAVYYCQHNDYSMFTFGPGTKVDIK | 38900 FACS Geomean | no binding | no binding |
| 26C4 (antibody, V domains shown, Tested as hybridoma supernatant at normalized concentration) VH: QVQLVQSGAEVKKPGASVKVSCKASGYTFTNYDINWVRQASGQGLEWMGWMNPNSGNTGYAQRFQGRVTMTRNTSINTAYMELSSLRSEDTAVYYCASSSGWYYFDYWGQGTLVTVSS VL: not shown | 12000 FACS Geomean | no binding | no binding |
| 4A2 (antibody, V domains shown, Tested as hybridoma supernatant at normalized concentration) VH: QVQLVQSGTEVKKPGASVKVSCKASGYTFTNYDINWVRQATGQGLEWMGWMHPNSGNTGYAQKFQGRVTLTRNTSISTAYMELSSLRSEDTAVYYCASSSGWYYFDYWGQGTLVTVSS VL: DIVMTQSPDSLAVSLGERATINCKSSQSILHSSNNNNYLAWFQQKPGQPPKLLLYWASTRESGVPDRFSGSGSGTDFTLTISSLQPEDVAVYYCQQYYNTPVTFGPGTKVGIK | 16600 FACS Geomean | no binding | no binding |
| 29H8 (antibody, V domains shown, Tested as hybridoma supernatant at normalized concentration) VH: QVQLVQSGAEVQKPGASVKVSCKASGYTFTNYDINWVRQATGQGLEWMGWMNPNSGNTGYAQRFQGRVTMTRNTSISAAYMELSSLRSEDTAVYYCASSSGWYYFDYWGQGTLVTVSS VL: not shown | 12200 FACS Geomean | no binding | no binding |
| 48B12 (antibody, V domains shown, Tested as hybridoma supernatant at normalized concentration) VH: EVQLLESGGGLVQPGGSLRLSCAASGFTFSSYAMNWVRQAPGKGLEWVSAISGRGGNTFYADSVKGRFTISRDNSKNTLYLQMNSLRAEDTAVYYCAKRETYNWNYEGFDYWGQGTLVTVSS VL: SYELTQPPSVSVSPGQTARITCSGDALPKKYAYWYQQKSGQAPVLVIYEDSKRPSGIPERFSGSSSGTMATLTISGAQVEDEADYYCNSTDSSGNHVVFGGGTKLTVL | 27000 FACS Geomean | no binding | no binding |
